Values of other authors in publication PMC7568816 (Gastroenterology Research and Practice, 2020).

Details: due to proteolytic cleavage by dipeptidyl peptidase IV; ref [15]
Procedure: Endogenous GLP-2 is composed of 33 amino acids and has a short half-life of about 7 minutes due to proteolytic cleavage by dipeptidyl peptidase IV [15]. Chemical substitution of the amino acid alanine to […] at position 2 extends the half-life of GLP-2, and this molecule (teduglutide) is approved for the treatment of short bowel syndrome.

Substance: Endogenous GLP-2: enteroendocrine hormone composed of 33 amino acids
- half-life: about 7 minutes
